The data set concerns the molecule itself. Put plainly: SEC; Superdex 200 5/150 GL, 20 mM Tris-HCl, pH 8.0, 150 mM NaCl, 0.04% (w/v) DDM; elution volumes of the mutants compared with the wild type. A general note: SEC sorts molecules by how far they enter the pores of the column.

B1: AdiC-Q88E (natural protein, E. coli)
chain: MSSDADAHKVGLIPVTLMVSGNIMGSGVFLLPANLASTGGIAIYGWLVTIIGALGLSMVYAKMSFLDPSPGGSYAYARRCFGPFLGYETNVLYWLACWIGNIAMVVIGVGYLSYFFPILKDPLVLTITCVVVLWIFVLLNIVGPKMITRVQAVATVLALIPIVGIAVFGWFWFRGETYMAAWNVSGLGTFGAIQSTLNVTLWSFIGVESASVAAGVVKNPKRNVPIATIGGVLIAAVCYVLSTTAIMGMIPNAALRVSASPFGDAARMALGDTAGAIVSFCAAAGCLGSLGGWTLLAGQTAKAAADDGLFPPIFARVNKAGTPVAGLIIVGILMTIFQLSSISPNATKEFGLVSSVSVIFTLVPYLYTCAALLLLGHGHFGKARPAYLAVTTIAFLYCIWAVVGSGAKEVMWSFVTLMVITAMYALNYNRLHKNPYPLDAPISKD
notes: AdiC, L-arginine/agmatine transporter of E. coli (gene from XL1-Blue genomic DNA, vector pZUDF21) with the point mutation Q88E; Residues of the HRV3C site may remain at the C-terminus after cleavage; source: E. coli BL21(DE3) pLysS, purified (Ni-NTA in DDM, on-column HRV3C cleavage); not shown: deca His-tag, C-terminal, cleaved
For the protein B1, the binding result was “binds”.

B2: AdiC-Y367F (natural protein, E. coli)
chain: MSSDADAHKVGLIPVTLMVSGNIMGSGVFLLPANLASTGGIAIYGWLVTIIGALGLSMVYAKMSFLDPSPGGSYAYARRCFGPFLGYQTNVLYWLACWIGNIAMVVIGVGYLSYFFPILKDPLVLTITCVVVLWIFVLLNIVGPKMITRVQAVATVLALIPIVGIAVFGWFWFRGETYMAAWNVSGLGTFGAIQSTLNVTLWSFIGVESASVAAGVVKNPKRNVPIATIGGVLIAAVCYVLSTTAIMGMIPNAALRVSASPFGDAARMALGDTAGAIVSFCAAAGCLGSLGGWTLLAGQTAKAAADDGLFPPIFARVNKAGTPVAGLIIVGILMTIFQLSSISPNATKEFGLVSSVSVIFTLVPYLFTCAALLLLGHGHFGKARPAYLAVTTIAFLYCIWAVVGSGAKEVMWSFVTLMVITAMYALNYNRLHKNPYPLDAPISKD
notes: AdiC, L-arginine/agmatine transporter of E. coli (gene from XL1-Blue genomic DNA, vector pZUDF21) with the point mutation Y367F; Residues of the HRV3C site may remain at the C-terminus after cleavage; source: E. coli BL21(DE3) pLysS, purified (Ni-NTA in DDM, on-column HRV3C cleavage); not shown: deca His-tag, C-terminal, cleaved
For the protein B2, the binding result is “binds”.

B3: AdiC-T421V (natural protein, E. coli)
chain: MSSDADAHKVGLIPVTLMVSGNIMGSGVFLLPANLASTGGIAIYGWLVTIIGALGLSMVYAKMSFLDPSPGGSYAYARRCFGPFLGYQTNVLYWLACWIGNIAMVVIGVGYLSYFFPILKDPLVLTITCVVVLWIFVLLNIVGPKMITRVQAVATVLALIPIVGIAVFGWFWFRGETYMAAWNVSGLGTFGAIQSTLNVTLWSFIGVESASVAAGVVKNPKRNVPIATIGGVLIAAVCYVLSTTAIMGMIPNAALRVSASPFGDAARMALGDTAGAIVSFCAAAGCLGSLGGWTLLAGQTAKAAADDGLFPPIFARVNKAGTPVAGLIIVGILMTIFQLSSISPNATKEFGLVSSVSVIFTLVPYLYTCAALLLLGHGHFGKARPAYLAVTTIAFLYCIWAVVGSGAKEVMWSFVTLMVIVAMYALNYNRLHKNPYPLDAPISKD
notes: AdiC, L-arginine/agmatine transporter of E. coli (gene from XL1-Blue genomic DNA, vector pZUDF21) with the point mutation T421V; Residues of the HRV3C site may remain at the C-terminus after cleavage; source: E. coli BL21(DE3) pLysS, purified (Ni-NTA in DDM, on-column HRV3C cleavage); not shown: deca His-tag, C-terminal, cleaved
With B3, the binding result is “binds”.

Source of the values: article PMC8406831, “High-resolution structure of the amino acid transporter AdiC reveals insights into the role of water molecules and networks in oligomerization and substrate binding” (BMC Biology, 2021).
